This is an account of results in patent publication CN115197317A (ANYUAN PHARMACEUTICAL TECH SHANGHAI CO LTD, dated 2022).

The target in one test is 刺突S-鼠Fc融合蛋白 (S-mFc) (SARS-CoV-2; mouse, UniProt P0DTC2 14-1213).
In the next test the target is SARS-CoV-2 S蛋白(His标签) (SARS-CoV-2, UniProt P0DTC2 16-1213). Briefly: competition ELISA, S protein (His tag) coated, HRP-hACE2-Fc as competitor. For orientation: ELISA stands for enzyme-linked immunosorbent assay.
For test [1], the target named is T1, SARS-CoV-2 S蛋白 (ACRO Biosystems, coated in ELISA 7.1) (SARS-CoV-2, UniProt P0DTC2 16-1213).
T1 construct: also called SARS-CoV S蛋白(ACRO Biosystems)
Briefly: indirect ELISA, S protein coated at 0.1 μg/mL.

Usually IC50 stands for the point on the concentration scale where inhibition reaches its midpoint. High values mean weaker potency, low ones greater potency. The EC50 is the concentration giving half of the maximal effect.

B1: 鼠源抗体ST-35-4 (antibody, V domains shown)
VH: QVQLQQPGAELVRPGASMKLSCKTSGYTFTTYTIHWIKQTPGQGLEWIGAVNPGNGDTSYSQKFKGRAILTADKSSNTASMQFSSLTSEDSAVYYCARDGYPYFYALDSWGQGTSVTVSS
VL: DIQMTQSPSSLSASLGERVSLTCRAGQEISSYLTWLQQKPDGTIKRLIYAASTLDSGVPKRFSGSRSGSDYSLTINSLESEDFADYYCLQYASYPWTFGGGTKVEIK
B1 gave an IC50 with 刺突S-鼠Fc融合蛋白 (S-mFc) of 0.0118 µg/mL.

B2: 人源化抗体hST-35-4 (antibody, V domains shown)
VH: EVQLVQSGAEVKKPGSSVKVSCKTSGYTFTTYTIHWIRQAPGQGLEWIGAVNPGNADTSYSQKFKGRATLTADKSSNTAYMELSSLRSEDTAVYYCARDAYPYFYALDSWGQGTTVTVSS
VL: DIQMTQSPSSLSASVGDRVTITCRAGQEISSYLTWLQQKPEGTIKRLIYAASTLDSGVPKRFSGSRSGSDYTLTISSLQPEDFATYYCLQYASYPWTFGGGTKVEIKR
As to B2, the IC50 with 刺突S-鼠Fc融合蛋白 (S-mFc) came to 0.0163 µg/mL; with SARS-CoV-2 S蛋白(His标签) it was 0.194 µg/mL. Moreover, the EC50 in test [1] amounted to 0.0018 µg/mL.

B3: 鼠源抗体ST-10-4 (antibody, V domains shown)
VH: QVTLKESGPGILQPSQTLTLTCSFSGFSLDSSNMGVSWIRQTSGKGLEWLAHIYWGDDNRYNPSLKSRLTVSKDTSSNQVFLKLTNVDTADTATYYCARKWNWDWFPYWGQGTLVTVSA
VL: DIVLTQSPTSLPVSLGQRATISCRASKSVSASGYSFMHWYQQKPGQPPKLLISLASNLESGVPARFSGSGSGTDFTLNIHPVEEEDAATYYCQHSRELPLTFGAGTKLELK
With B3, the midpoint of inhibition in the test with 刺突S-鼠Fc融合蛋白 (S-mFc), the IC50, lay at 0.0165 µg/mL.

B4: 人源化抗体hST-10-4 (antibody, V domains shown)
VH: EVTLKESGPALVKPTQTLTLTCTFSGFSLDSSNMGVSWIRQPPGKGLEWLAHIYWGDDNRYNPSLKSRLTVSKDTSKNQVVLTMTNMEPVDTATYYCARKWNWDWFPYWGQGTTVTVSS
VL: DIVLTQSPDSLAVSLGERATINCRASKSVSASGYSFMHWYQQKPGQPPKLLISLASNLESGVPARFSGSGSGTDFTLTISRLQAEDVAVYYCQHSRELPLTFGAGTKLEIKR
In the case of B4, the IC50 in the test with 刺突S-鼠Fc融合蛋白 (S-mFc) came out at 0.0123 µg/mL; with SARS-CoV-2 S蛋白(His标签), 0.257 µg/mL. Also, the EC50 in test [1] was 0.0023 µg/mL.
